The results in this text go back to patent US20220153859A1 (ANOKION, published 2022).

T1: Human glycophorin A on human erythrocytes (human, UniProt P02724 20-150)
T1 construct: whole, on cells; Target of the flow cytometry assays on human erythrocytes; also called human GPA; hGPA
T1 sequence (looked up): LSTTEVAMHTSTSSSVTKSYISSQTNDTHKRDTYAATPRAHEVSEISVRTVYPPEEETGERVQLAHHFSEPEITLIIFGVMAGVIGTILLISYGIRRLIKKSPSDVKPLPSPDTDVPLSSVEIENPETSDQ

T2: Human glycophorin A extract (hGPA extract) (human, UniProt P02724 20-150)
T2 construct: also called human GPA extracted from red blood cells (extract)
T2 sequence (looked up): T1 sequence (looked up)

B1: CDRL2_37 (Fab, V domains shown)
VH: QVQLVQSGAEVKKPGASVKVSCTASGFNIKDTYMLWVRQAPGQGLEWMGRIDPANANSRYDPKFQGRVTITADTSTNTAYMELSSLRSEDTAVYYCVDGYMFAYWGQGTLVTVSS
VL: DVVMTQTPLSLSVTPGQPASISCKSSQSLLYSNGKTYLHWLLQKPGQSPQRLIYLSNRLHSGVPDRFSGSGSGTDFTLKISRVEAEDVGVYYCVQGTHFPLTFGQGTKLEIKR
notes: copies: 1 + 1
B2: CDRH1_1 (Fab, V domains shown)
VH: B1 VH with K30R, D31A, M34I
VL: B1 VL with S56V, N57S, R58K, H60D
notes: copies: 1 + 1
B3: CDRH1_24 (Fab, V domains shown)
VH: B1 VH with D31T, T32V, M34I
VL: B1 VL with S56V, N57S, R58K, H60D
notes: copies: 1 + 1
B4: CDRL2_32 (Fab, V domains shown)
VH: B1 VH
VL: B1 VL with S56L, H60S
notes: copies: 1 + 1
B5: CDRH1_14 (Fab, V domains shown)
VH: B1 VH with K30R, D31N, T32I, M34L
VL: B1 VL with S56V, N57S, R58K, H60D
notes: column Notes: 'Duplicate ELISA hit'; copies: 1 + 1
B6: CDRL2_49 (Fab, V domains shown)
VH: B1 VH
VL: B1 VL with S56L, L59M, H60S
notes: column Notes: 'ELISA Hit'; copies: 1 + 1
B7: CDRH1_15 (Fab, V domains shown)
VH: B1 VH with K30R, D31K, M34I
VL: B1 VL with S56V, N57S, R58K, H60D
notes: copies: 1 + 1
B8: CDRH1_25 (Fab, V domains shown)
VH: B1 VH with D31H, T32V, M34I
VL: B1 VL with S56V, N57S, R58K, H60D
notes: copies: 1 + 1
B9: Humanized & affinity matured 10F7-M10 Fab clone L1+2-5 (Fab)
heavy: EVQLLESGGGLVQPGKSLRLSCKASGYTFNSYFMHWVRQAPGKGLEWVGMIRPNGGTTDYNEKFKNRFTLSVDKSKNTAYLQMNSLRAEDTAVYYCARWEGSYYALDYWGQGTASTKGPSVFPLAPSSKSTSGGTAALGCLVKDYFPEPVTVSWNSGALTSGVHTFPAVLQSSGLYSLSSVVTVPSSSLGTQTYICNVNHKPSNTKVDKKVEPKSC
light: EITLTQSPATLSLSPGERATLSCRASSNVYNMYWYQQKPGQAPRLWIHRTSNLASGIPDRFSGSGSGTDYTLTISRLEPEDFAVYYCQQFTSSPYTFGQGTKVEVKRTVAAPSVFIFPPSDEQLKSGTASVVCLLNNFYPREAKVQWKVDNALQSGNSQESVTEQDSKDSTYSLSSTLTLSKADYEKHKVYACEVTHQGLSSPVTKSFNRGEC
notes: Soluble Fab from HEK cells; all domains other than VL are the same as wild-type 10F7-M10; also called YN-HR-N
B10: Humanized & affinity matured 10F7-M10 Fab clone L1+2-19 (Fab)
heavy: B9 heavy
light: B9 light with N31Q, R49H, N52F
notes: the tie is by these residues, not by the label; also called YQ-HH-F
B11: Humanized & affinity matured 10F7-M10 Fab clone L1+2-7 (Fab)
heavy: B9 heavy
light: B9 light with Y30H, N31H, R49H, N52L
notes: Soluble Fab from HEK cells; all domains other than VL are the same as wild-type 10F7-M10; also called HH-HH-L
B12: Humanized & affinity matured 10F7-M10 Fab clone L1+2-16 (Fab)
heavy: B9 heavy
light: B9 light with Y30F, N31Q, R49H, N52E
notes: Soluble Fab from HEK cells; all domains other than VL are the same as wild-type 10F7-M10; also called FQ-HH-E
B13: hF-3-103M1 Fab (humanized 3-103, clone M1; parental / wild-type Fab) (Fab, V domains shown)
VH: B1 VH
VL: B1 VL with S56V, N57S, R58K, H60D
notes: Soluble humanized Fab; also called parent Fab

Substitutions are numbered along the chain they refer to.

The target of the first assay is T1, Human glycophorin A on human …. Kind of assay: FACS (flow cytometry) on human erythrocytes (hRBCs). The method, boiled down: (§1)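 Flow cytometry was used to measure Fab binding to human or cynomolgus erythrocytes, and this binding is reported as EC50. The Fabs had been picked through next-generation-sequencing enrichment and phage ELISA screens, then expressed in soluble form in HEK cells, with the top-ranking ones purified on CH1 resin.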
(In general: Flow cytometry measures light scatter and fluorescence of single cells or particles in a stream.)
Consider B1, for which the EC50 (usually the concentration that produces a half-maximal response) worked out at 2.8 nM.
B2 showed an EC50 of 4.3 nM.
The same measure, in the same setting: the same measure for B3: 3.1 nM.
The same measure, in the same setting: the same measure for B4: 4.2 nM; for B5: 4.2 nM.
Still for that read-out and setting: the same measure for B6: 4.4 nM; for B7: 3.1 nM; for B8: 3.1 nM.

For another assay, the target named is T2, Human glycophorin A extract (hGPA …). Kind of assay: Octet BLI, hGPA extract, apparent KD; biphasic off-rate to fit data.
Take B9: the Kd was 10 nM.
As to B10, the Kd came out at 6.83 nM.
As for B11, the Kd was determined as 23 nM.
The same measure, in the same setting: the same measure for B12: 6.18 nM.

A further assay shares this target. Kind of assay: Biacore SPR, hGPA extract, apparent KD; biphasic off-rate to fit data. (In general: In SPR one partner is held on a chip, and binding of the other changes the refractive index at the surface.)
For the molecule B9, the Kd is 10.2 nM.
With B10, the Kd worked out at 6.83 nM.
Still for that read-out and setting: under B11 stands 23.2 nM.
Same read-out and setting: the same measure for B12: 6.18 nM.

A further assay shares this target. Description: Octet BLI, hGPA extract, apparent; biphasic off-rate to fit data. A general note: Biolayer interferometry detects binding as a change in optical thickness at a sensor tip.
On to B9, for which the koff (as a rule, the rate constant with which the complex falls apart) amounted to 0.0081 s⁻¹ and the kon (commonly the rate constant with which the complex forms) was 790000 M⁻¹ s⁻¹.
In the same order, the values of B10 are 0.0033 s⁻¹ and 480000 M⁻¹ s⁻¹.
For B11 the same measures were 0.0037 s⁻¹ and 160000 M⁻¹ s⁻¹.
For the molecule B12, the koff was found to be 0.0038 s⁻¹ and the kon came out at 610000 M⁻¹ s⁻¹.

In another assay the target is T3, Cynomolgus glycophorin A on cynomolgus erythrocytes (cynomolgus monkey).
T3 construct: whole, on cells; also called cyno GPA; cyno erythrocytes
Description: FACS (flow cytometry) on cynomolgus erythrocytes (cRBCs). Put shortly: as §1
B1 showed an EC50 of 10.1 nM.
Molecule B2 registered an EC50 of 11.6 nM.
Still for that read-out and setting: the same measure for B3: 10.6 nM.
Same read-out and setting: under B4 stands 11.1 nM; under B5, 10.8 nM.
Same read-out and setting: the same measure for B6: 13 nM; for B7: 10.6 nM; for B8: 10.2 nM.

The next assay deals with T1, Human glycophorin A on human …. Description: flow cytometry on human erythrocytes, Fab in culture supernatant [C]. Put shortly:
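Fabs chosen from one CDR library by next-generation-sequencing enrichment were expressed as soluble Fabs in HEK cells in high-throughput format. Fab concentration in the culture supernatant was quantified by Octet biolayer interferometry. Supernatant Fabs were tested for binding to human erythrocytes by flow cytometry, read as median fluorescence intensity curves. These curves were compared with the parental Fab.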
For the molecule B13, the binding result was “binds”.

In the next assay the target is T2, Human glycophorin A extract (hGPA …). Description: Biacore SPR, hGPA extract, apparent; biphasic off-rate to fit data.
As for B9, the koff amounted to 0.00808 s⁻¹ and the kon is 795000 M⁻¹ s⁻¹.
In the same order, the values of B10 are 0.00326 s⁻¹ and 477000 M⁻¹ s⁻¹.
As to B11, the koff came to 0.00371 s⁻¹ and the kon turned out to be 160000 M⁻¹ s⁻¹.
In the same order, the values of B12 are 0.00376 s⁻¹ and 608000 M⁻¹ s⁻¹.

The target in another assay is T1, Human glycophorin A on human …. Description: flow cytometry (FACS) on human erythrocytes, soluble Fab.
With B9, the EC50 came to 8.8 nM.
Still for that read-out and setting: under B10 stands 4.6 nM; under B11, 6.9 nM.
Still for that read-out and setting: the same measure for B12: 4.6 nM.
